In article PMC9786881 (Viruses, 2022):
Where “and” joins values, the source holds several entries; their conditions need not be identical. Equal values may be shown once.

B1: RABV nucleoprotein lacking its N-terminal arm (N[change], residues 24-450) (domain or fragment)
chain: DQYEYKYPAIKDLKKPCITLGKAPDLNKAYKSVLSGMNAAKLDPDDVCSYLAAAMQFFEGTCPEDWTSYGILIARKGDRITPNSLVEIKRTDVDGNWALTGGMELTRDPTVSEHASLVGLLLSLYRLSKISGQNTGNYKTNIADRIEQIFETAPFVKIVEHHTLMTTHKMCANWSTIPNFRFLAGTYDMFFSRIEHLYSAIRVGTVVTAYEDCSGLVSFTGFIKQINLTAREAILYFFHKNFEEEIRRMFEPGQETAVPHSYFIHFRSLGLSGKSPYSSNAVGHVFNLIHFVGCYMGQVRSLNATVIAACAPHEMSVLGGYLGEEFFGKGTFERRFFRDEKELQEYEAAELTKTDVALADDGTVNSDDEDYFSGETRSPEAVYTRIMMNGGRLKRSHIRRYVSVSSNHQARPNSFAEFLNKTYSNDS
B2: RABV phosphoprotein residues 1-68 with C-terminal His6 (P68−His6) (peptide)
chain: MSKIFVNPSAIRAGLADLEMAEETVDLINRNIEDNQAHLQGEPIEVDNLPEDMKRLHLDDEKSSNLGE
B3: full-length RABV phosphoprotein (PFL) (natural protein)
chain: MSKIFVNPSAIRAGLADLEMAEETVDLINRNIEDNQAHLQGEPIEVDNLPEDMKRLHLDDEKSSNLGEMVRVGEGKYREDFQMDEGEDPNLLFQSYLDNVGVQIVRQMRSGERFLKIWSQTVEEIVSYVTVNFPNPPRRSSEDKSTQTTGRELKKETTSAFSQRESQPSKARMVAQVAPGPPALEWSATNEEDDLSVEAEIAHQIAESFSKKYKFPSRSSGIFLYNFEQLKMNLDDIVKEAKNVPGVTRLAHDGSKIPLRCVLGWVALANSKKFQLLVEADKLSKIMQDDLNRYTSC

Tests used:
[1] = target: B3; assay: SEC-SAXS; conditions: both partners purified
[2] = target: B1; assay: SEC-MALLS; conditions: both partners purified
[3] = target: B1; assay: fluorescence polarisation; conditions: both partners purified
[4] = target: B1; assay: fluorescence polarisation; conditions: both partners purified; remark: listed apart in the source
SEC-SAXS = target: the molecule itself; assay: SEC-SAXS

With B1 as the binder, how does the “stoichiometry N” value [1] read?
The value was 2 N molecules per P dimer and 1 N molecules per P dimer.

How did the Kd [2] turn out when B2 was run?
The Kd was under 1 µM.

What about the IC50 [3] of the same binder?
The IC50 was about 1 µM.

What about the Kd [4] of the same binder?
The Kd was 0.0082 ± 0.0006 µM.

B3 was tested. Which “stoichiometry N” value (SEC-SAXS) did it give?
The value was 2.
